Reference: the Human Domainome abundance scans (Beltran et al. 2025)
± gives the uncertainty stated by the source.

B1: Endonuclease CUE2, residues 9 to 47; numbered along this chain, P36075 (parent)
chain: HESKLSILMDMFPAISKSKLQVHLLENNNDLDLTIGLLL
B2: Telomeric repeat-binding factor 2, residues 489 to 542; numbered along this chain, Q15554 (parent)
chain: KQKWTVEESEWVKAGVQKYGEGNWAAISKNYPFVNRTAVMIKDRWRTMKRLGMN

Variants of: B1
Assay: abundance fitness (aPCA) (normalised: wild type 0, dead -1); higher = more abundant; growth selection in yeast, the domain comes from the species named
Conditions: Saccharomyces cerevisiae (strain ATCC 204508 / S288c)

Abundance fitness, by site and new letter:
F12: R -0.865 ± 0.11, G -0.905 ± 0.15, S -0.808 ± 0.12, K -0.966 ± 0.2, V -0.9 ± 0.1, M -0.548 ± 0.19, L -0.644 ± 0.075, T -0.446 ± 0.12, D -1.07 ± 0.28, E -0.884 ± 0.12, W -0.596 ± 0.097, P -0.611 ± 0.39
S6: A 0.041 ± 0.034, W -0.443 ± 0.074, Q 0 ± 0.12, G -0.073 ± 0.032, T -0.011 ± 0.045, M -0.221 ± 0.09, L -0.098 ± 0.042, Y 0.32 ± 0.45, E -0.107 ± 0.053, H -0.38 ± 0.089, R -0.027 ± 0.033, P -0.342 ± 0.072
S3: L -0.184 ± 0.048, E -0.106 ± 0.043, A -0.156 ± 0.04, T -0.344 ± 0.063, V -0.329 ± 0.047, W -0.428 ± 0.054, G -0.145 ± 0.036, C -0.146 ± 0.38, M -0.042 ± 0.073, H 0.014 ± 0.068, P -0.453 ± 0.12, R -0.329 ± 0.04, Q -0.057 ± 0.051, K -0.094 ± 0.097
I7: T 0.059 ± 0.051, G -0.544 ± 0.039, S -0.114 ± 0.065, Q 0.137 ± 0.072, V 0.095 ± 0.036, D 0.22 ± 0.28, M 0.058 ± 0.071, E -0.158 ± 0.065, A 0.071 ± 0.042, W -0.406 ± 0.067, K 0.078 ± 0.096, P -0.633 ± 0.17, C 0.153 ± 0.26, F -0.282 ± 0.076
E2: I 0.14 ± 0.051, D -0.133 ± 0.2, Q 0.113 ± 0.042, T 0.157 ± 0.054, L 0.109 ± 0.04, R 0.13 ± 0.045, M 0.19 ± 0.061, N 0.167 ± 0.078, S -0.319 ± 0.067, G -0.11 ± 0.039, V -0.195 ± 0.039, C 0.283 ± 0.11, K 0.153 ± 0.042, P -0.035 ± 0.066, W -0.349 ± 0.068
K4: G -0.241 ± 0.033, Q -0.023 ± 0.052, R -0.038 ± 0.035, F -0.259 ± 0.086, I -0.127 ± 0.17, N -0.023 ± 0.1, S -0.001 ± 0.065, V -0.37 ± 0.047, L -0.13 ± 0.047, C -0.061 ± 0.061, E -0.011 ± 0.034, A -0.117 ± 0.04, H 0.098 ± 0.19, M 0.188 ± 0.11, P -0.16 ± 0.059, W -0.572 ± 0.057, D 0.115 ± 0.059, Y 0.127 ± 0.21
M11: W -0.413 ± 0.048, E -0.274 ± 0.051, V -0.447 ± 0.058, P -0.748 ± 0.28, D -0.758 ± 0.12, H -0.297 ± 0.14, N -0.209 ± 0.26, G -0.746 ± 0.074, A -0.16 ± 0.049, Q -0.077 ± 0.037, L -0.184 ± 0.083, S -0.421 ± 0.15
P13: G -0.834 ± 0.07, F -0.868 ± 0.37, D -0.898 ± 0.18, H -1.06 ± 0.3, K -0.781 ± 0.16, M -0.72 ± 0.16, A -0.602 ± 0.11, Q -0.752 ± 0.13, C -0.67 ± 0.18, R -0.951 ± 0.11, E -0.349 ± 0.083, I -0.804 ± 0.17, L -0.795 ± 0.1
D10: F -0.463 ± 0.18, K -0.191 ± 0.048, W -0.691 ± 0.092, C -0.123 ± 0.11, V -0.336 ± 0.044, E 0.052 ± 0.038, S -0.299 ± 0.056, L -0.441 ± 0.051, P -0.587 ± 0.12, H -0.145 ± 0.11, G -0.099 ± 0.032, Q -0.183 ± 0.064, I -0.12 ± 0.067, N -0.086 ± 0.055
L8: F -0.701 ± 0.18, A -1.02 ± 0.18, S -0.915 ± 0.23, Q -0.96 ± 0.33, V -0.596 ± 0.046, R -0.883 ± 0.084, M -0.631 ± 0.12, E -0.931 ± 0.09, K -0.968 ± 0.15, G -0.913 ± 0.065, W -0.947 ± 0.13, D -1.16 ± 0.42
H1: D 0.064 ± 0.36, A 0.264 ± 0.093, V 0.28 ± 0.045, K 0.312 ± 0.062, M 0.255 ± 0.09, E 0.361 ± 0.043, C 0.351 ± 0.12, S 0.174 ± 0.06, L 0.377 ± 0.045, R 0.284 ± 0.035, W 0.05 ± 0.039, T 0.467 ± 0.062, G 0.237 ± 0.037
M9: Q -0.013 ± 0.07, V 0.014 ± 0.052, E -0.03 ± 0.054, C -0.159 ± 0.057, S -0.011 ± 0.042, P -1.14 ± 0.28, T -0.054 ± 0.073, K -0.155 ± 0.083, D -0.255 ± 0.068, A -0.042 ± 0.042, W -0.28 ± 0.059, Y -0.057 ± 0.055, R -0.049 ± 0.032, N -0.402 ± 0.1, G -0.011 ± 0.033, L 0.107 ± 0.042
L5: K -0.771 ± 0.27, R -0.906 ± 0.067, A -0.708 ± 0.068, E -0.683 ± 0.076, W -0.779 ± 0.078, T -0.338 ± 0.072, M -0.031 ± 0.065, S -0.856 ± 0.22, G -0.817 ± 0.055, P -0.738 ± 0.18, Q -0.775 ± 0.081, D -0.928 ± 0.25, H -1 ± 0.19, C -0.306 ± 0.066, V -0.002 ± 0.037

Variants of: B2
Assay: as above
Conditions: Homo sapiens

Abundance fitness of substitutions, site by site:
T47: S -0.017 ± 0.079, E 0.177 ± 0.071, D 0.145 ± 0.12, R -0.204 ± 0.048, C -0.083 ± 0.11, Q 0.042 ± 0.12, M -0.18 ± 0.05, W -0.276 ± 0.065, A 0.059 ± 0.065, P -0.67 ± 0.19, V -0.157 ± 0.074, Y 0.015 ± 0.047, K -0.05 ± 0.058, I -0.094 ± 0.1, F -0.658 ± 0.2, N -0.281 ± 0.38
N54: H 0.092 ± 0.37, W -0.166 ± 0.077, I -0.032 ± 0.12, F -0.537 ± 0.28, G 0.344 ± 0.14, V -0.075 ± 0.092, D -0.038 ± 0.22, S -0.051 ± 0.13, T 0.544 ± 0.12, A 0.246 ± 0.11, Y -0.399 ± 0.16
R46: K -0.007 ± 0.2, Q -0.004 ± 0.12, N 0.047 ± 0.17, P -0.828 ± 0.41, W -0.106 ± 0.039, T 0.136 ± 0.084, I 0.015 ± 0.12, F 0.073 ± 0.067, E 0.204 ± 0.09, Y 0.181 ± 0.072, A 0.106 ± 0.069, M 0.325 ± 0.089, D -0.195 ± 0.13, S 0.043 ± 0.06, L 0.054 ± 0.049, C -0.133 ± 0.076, H 0.011 ± 0.12, V 0.005 ± 0.039
G52: A -0.304 ± 0.085, P 0.243 ± 0.1, H -0.215 ± 0.13, Y -0.485 ± 0.19, K -0.149 ± 0.13, Q -0.201 ± 0.11, T -0.1 ± 0.24, W -0.449 ± 0.11, C -0.087 ± 0.061, V 0.004 ± 0.076, F -0.223 ± 0.059, D -0.011 ± 0.13, N 0.049 ± 0.12, R -0.119 ± 0.059, S -0.358 ± 0.086, I -0.019 ± 0.065, E -0.071 ± 0.1, L -0.195 ± 0.054
L51: M -0.051 ± 0.065, H 0.031 ± 0.4, A -0.043 ± 0.08, Y -0.063 ± 0.12, F -0.355 ± 0.16, E 0.283 ± 0.075, W -0.05 ± 0.073, G -0.035 ± 0.052, P -0.394 ± 0.063, C -0.171 ± 0.096, V 0.006 ± 0.05, Q 0.036 ± 0.064, T 0.101 ± 0.09, I -0.241 ± 0.13, S -0.025 ± 0.054, D -0.259 ± 0.13
K49: F -0.535 ± 0.14, D -0.507 ± 0.14, W -0.334 ± 0.22, L -0.302 ± 0.045, T -0.142 ± 0.045, P -0.766 ± 0.2, I -0.415 ± 0.16, M -0.657 ± 0.19, Q -0.054 ± 0.16, G -0.568 ± 0.073, N -0.597 ± 0.16, R -0.358 ± 0.043, C 0.116 ± 0.086, E -0.235 ± 0.054, H -0.462 ± 0.23, S -0.286 ± 0.056, A -0.29 ± 0.046
W45: V -0.866 ± 0.089, Q -0.914 ± 0.094, K -1.09 ± 0.14, T -0.986 ± 0.19, S -0.933 ± 0.18, R -0.953 ± 0.16, Y -0.318 ± 0.1, L -0.815 ± 0.087
M48: Q -0.64 ± 0.15, K -0.978 ± 0.44, F -0.688 ± 0.34, V -0.463 ± 0.077, D -0.507 ± 0.28, C -0.912 ± 0.28, S -0.95 ± 0.2, P -0.886 ± 0.069, E -0.674 ± 0.24, L -0.177 ± 0.048, Y -0.696 ± 0.24, W -0.359 ± 0.12, A -0.821 ± 0.17, R -1 ± 0.16, I -0.395 ± 0.092, N -0.376 ± 0.099, G -1.02 ± 0.1, T -0.635 ± 0.16
R50: N -0.054 ± 0.12, I 0.286 ± 0.09, P -0.176 ± 0.11, L -0.252 ± 0.084, K 0.178 ± 0.11, M 0.007 ± 0.16, A 0.007 ± 0.052, E 0.052 ± 0.099, H -0.553 ± 0.21, T -0.016 ± 0.046, Y -0.456 ± 0.17, F 0.076 ± 0.094, S 0.068 ± 0.056, V -0.07 ± 0.074, W -0.253 ± 0.14, Q -0.026 ± 0.043
M53: I -0.141 ± 0.12, L 0.026 ± 0.079, Q -0.099 ± 0.099, K -0.269 ± 0.19, W -0.329 ± 0.088, V -0.184 ± 0.07, E 0.01 ± 0.095, A -0.134 ± 0.068, G -0.007 ± 0.058, S -0.145 ± 0.1, H -0.249 ± 0.3, Y -0.686 ± 0.31, P -0.147 ± 0.15, T -0.249 ± 0.16, R -0.311 ± 0.072, D 0.349 ± 0.093
